From patent US5976877

Biological target: HLA class II molecules on the Burkitt lymphoma line Raji

B1: LAG-3 protein (Lymphocyte Activation Gene-3), mature membrane protein of 470 amino acids (receptor)
chain: VPVVWAQEGAPAQLPCSPTIPLQDLSLLRRAGVTWQHQPDSGPPAAAPGHPLAPGPHPAAPSSWGPRPRRYTVLSVGPGGLRSGRLPLQPRVQLDERGRQRGDFSLWLRPARRADAGEYRAAVHLRDRALSCRLRLRLGQASMTASPPGSLRASDWVILNCSFSRPDRPASVHWFRNRGQGRVPVRESPHHHLAESFLFLPQVSPMDSGPWGCILTYRDGFNVSIMYNLTVLGLEPPTPLTVYAGAGSRVGLPCRLPAGVGTRSFLTAKWTPPGGGPDLLVTGDNGDFTLRLEDVSQAQAGTYTCHIHLQEQQLNATVTLAIITVTPKSFGSPGSLGKLLCEVTPVSGQERFVWSSLDTRSQRSFSGPWLEAQEAQLLSQPWQCQLYQGERLLGAAVYFTELSSPGAQRSGRAPGALPAGHLLLFLTLGVLSLLLLVTGAFGFHLWRRQWRPRRFSALEQGIHPRRLRAR
- rosette formation / adhesion of Raji cells to transfected COS-7 cells: 23%
